Results from paper PMC3460896, “A Common Origin for the Bacterial Toxin-Antitoxin Systems parD and ccd, Suggested by Analyses of Toxin/Target and Toxin/Antitoxin Interactions” (PLoS ONE, 2012).
Where “and” joins values, the source holds several entries; their conditions need not be identical. Equal values may be shown once.

B1: CcdA antitoxin (natural protein, plasmid F, UniProt P62552 1-72, looked up)
chain: MKQRITVTVDSDSYQLLKAYDVNISGLVSTTMQNEARRLRAERWKAENQEGMAEVARFIEMNGSFADENRDW
notes: source: E. coli strain SG22623 carrying plasmid pKK223CcdA, purified as described previously [35]
B2: His6-Kis antitoxin (natural protein, plasmid R1, UniProt P13975 1-85, looked up)
chain: MHTTRLKRVGGSVMLTVPPALLNALSLGTDNEVGMVIDNGRLIVEPYRRPQYSLAELLAQCDPNAEISAEEREWLDAPATGQEEI
notes: also called HisKis; source: purified as described [12]

What was measured:
CcdB toxin [1] = target: T1, CcdB toxin (plasmid F, UniProt P62554 1-101); test: native MS; CcdB:CcdA molar ratios 1:2 and 1:4 (CcdA in excess); 100 mM ammonium acetate pH 6.7; lowest protein concentration 10 µM; conditions: both partners purified
T1 construct: source: E. coli strain B462 carrying plasmid pULB2250, purified (Sephacryl S-200, MonoQ, CM-Sepharose)
T1 sequence (P62554 whole entry): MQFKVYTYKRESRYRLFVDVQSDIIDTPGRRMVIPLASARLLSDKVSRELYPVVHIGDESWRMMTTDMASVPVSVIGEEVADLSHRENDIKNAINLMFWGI

Kid toxin (plasmid R1) = Kid toxin (plasmid R1) (UniProt P13976); test: native MS; Kid:CcdA ratios 2:1, 1:1 and 1:2; 100 mM ammonium acetate pH 6.7; lowest protein concentration 10 µM
Sequence of Kid toxin (plasmid R1) (P13976 24-133): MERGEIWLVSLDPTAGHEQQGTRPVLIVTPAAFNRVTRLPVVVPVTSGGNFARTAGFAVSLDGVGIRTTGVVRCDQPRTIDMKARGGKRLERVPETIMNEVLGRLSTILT

CcdB toxin [2] = target: T1, CcdB toxin; test: native MS; CcdB:CcdA molar ratios 2:1 and 1:1 (CcdB equal to or in excess of CcdA); 100 mM ammonium acetate pH 6.7; lowest protein concentration 10 µM; conditions: both partners purified
[3] = target: the molecule itself; test: native MS; CcdB:His6Kis molar ratios 2:1, 1:1 and 1:2 (Fig. 6A-C); 100 mM ammonium acetate pH 6.7; lowest protein concentration 10 µM
CcdB toxin [4] = target: T1, CcdB toxin; test: as above; conditions: both partners purified
CcdB toxin [5] = target: T1, CcdB toxin; test: native MS; CcdB:His6Kis molar ratio 1:4 (Fig. 6D); 100 mM ammonium acetate pH 6.7; lowest protein concentration 5 µM; conditions: both partners purified

Binder	stoichiometry N (CcdB toxin [1])	stoichiometry N (CcdA per Kid (1:2)) (Kid toxin (plasmid R1))	stoichiometry N (CcdA per Kid (2:2)) (Kid toxin (plasmid R1))	stoichiometry N (CcdB toxin [2])	stoichiometry N [3]	stoichiometry N (CcdB toxin [4])	stoichiometry N (CcdB toxin [5])
B1	1 CcdA per CcdB (2:2)	0.5	1	0.5 CcdA per CcdB (1:2) and 0.5 CcdA per CcdB (2:4)	–	–	–
B2	–	–	–	–	2	1 His6Kis per CcdB (2:2)	0.5 His6Kis per CcdB (1:2)
